Our source for the IC50 values is PMC7618200 (The Biochemical journal, 2025).

B1: MyD88 peptide 125AEKPLQVAAVDSSVPRT141 (17-mer) [human] / SPOP MATH domain (SPOP^MATH; residues 28-166) [human] (parent complex)
chain 1: AEKPLQVAAVDSSVPRT
chain 2: KVVKFSYMWTINNFSFCREEMGEVIKSSTFSSGANDKLKWCLRVNPKGLDEESKDYLSLYLLLVSCPKSEVRAKFKFSILNAKGEETKAMESQRAYRFVQGKDWGFKKFIRRDFLLDEANGLLPDDKLTLFCEVSVVQD

This experiment covers variants of B1. Put plainly: FP competition assay; competitor against fluorescently labeled Puc peptide.
As a reminder, the IC50 is the concentration needed to halve the response being measured. On to chain 1 AEKPLQVAAVAAAVPRT [chain 1 D11A, chain 1 S12A, chain 1 S13A], for which the IC50 is roughly 2.11 mM.
